Experimental findings from paper PMC8184810, “Light regulates stomatal development by modulating paracrine signaling from inner tissues” are described below.

Changes are numbered by the printed parent chain.

For series [1], the target named is T1, MBP-HY5 (Arabidopsis thaliana, UniProt O24646 1-168).
T1 sequence: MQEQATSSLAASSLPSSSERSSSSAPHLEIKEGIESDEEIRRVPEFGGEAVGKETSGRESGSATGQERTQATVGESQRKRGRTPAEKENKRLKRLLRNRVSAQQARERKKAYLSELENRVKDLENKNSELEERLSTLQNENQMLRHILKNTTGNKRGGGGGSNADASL
Briefly: EMSA; EMSA: 20 fmol biotin probe, ~1 ug protein, 20 ul binding buffer (composition not given), on ice 1 h; pull-down: 10 mM Tris-HCl pH 7.5, 50 mM KCl, 5 mM MgCl2, 2.5% glycerol, 0.05% NP-40, 5 ug salmon sperm DNA, 10 ug BSA, 4 C 1 h. The conditions noted are these: protein: recombinant; tags: N-terminal MBP (pETG-40A); chain copies: 2; blunt.

Series [2] has as its target T1, MBP-HY5. The experiment in a line: pull-down; 5 mM MgCl2; salmon sperm DNA; EMSA: 20 fmol biotin probe, ~1 ug protein, 20 ul binding buffer (composition not given), on ice 1 h; pull-down: 10 mM Tris-HCl pH 7.5, 50 mM KCl, 5 mM MgCl2, 2.5% glycerol, 0.05% NP-40, 5 ug salmon sperm DNA, 10 ug BSA, 4 C 1 h. The conditions noted are these: protein: recombinant; tags: N-terminal MBP (pETG-40A); chain copies: 2; blunt. On the technique in general: Mobility shift assays separate free from complexed probe on a gel.

B1: P2 (STOMAGEN promoter) (dsDNA)
DNA 1: TCCTCTGTATTTTCAAACTCTTATCTCTACGTGTGCACAAACCTCACCATTAGATGATAA
DNA 2: TTATCATCTAATGGTGAGGTTTGTGCACACGTAGAGATAAGAGTTTGAAAATACAGAGGA
Consider B1, for which the binding result with MBP-HY5 [1] is “binds”.

B2: mP2 (Z-box mutated) (dsDNA)
DNA 1: B1 DNA 1 with T28A, C30A, G31A, T32A, G33A
DNA 2: B1 DNA 2 with C28T, A29T, C30T, G31T, A33T
B2: in the series with MBP-HY5 [2], the binding result was “no binding”.
